From paper PMC7904728, “ITSN1 regulates SAM68 solubility through SH3 domain interactions with SAM68 proline-rich motifs”

Target: ITSN1 SH3D-His (UniProt Q15811-2 1063-1150)
Assay: NMR; 300 uM SH3D, 1:1.2 molar ratio; shift perturbations in eight residues; EMSA: 20 mM Tris-HCl pH 7.4, 50 mM KCl, 1 mM Mg, room temperature, 5 min, 0.7% agarose 0.5x TBE; NMR: 298 K, protein dialyzed in 12 mM potassium
Details: protein: recombinant; tags: His (pET22b); single strand

ITSN1 SH3D-His, sequence (Q15811 1063-1150): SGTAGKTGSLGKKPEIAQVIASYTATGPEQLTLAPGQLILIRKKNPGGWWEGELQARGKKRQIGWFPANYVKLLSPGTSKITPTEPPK

CACACACACACA (ssDNA) [CA6]
binding result: binds

TTTTTTTTTTTT (ssDNA) [T12]
binding result: binds
